Data on two molecules can be found in US20080199467A1 (TRANSTECH PHARMA, published 2008).

The target of the experiment is T1, BSA (UniProt P02769 25-607).
T1 construct: Negative control coating; also called BSA coating alone; BSA+wash
Put plainly: ELISA, plate coated with BSA only, dilutions of fusion protein, anti-human IgG1 immunodetection complex, A405. How it is done:
Known RAGE ligands were coated onto the surface of Maxisorb plates at a concentration of 5 micrograms per well. Plates were incubated at 4° C. overnight. Following ligand incubation, plates were aspirated and a blocking buffer of 1% BSA in 50 mM imidizole buffer (pH 7.2) was added to the plates for 1 hour at room temperature. The plates were then aspirated and/or washed with wash buffer (20 mM Imidizole, 150 mM NaCl, 0.05% Tween-20, 5 mM CaCl₂ and 5 mM MgCl₂, pH 7.2). […] The RAGE fusion protein was added at increasing dilutions of the initial sample. The RAGE fusion protein was allowed to incubate with the immobilized ligand at 37° C. for one hour after which the plate was washed and assayed for binding of the RAGE fusion protein. Binding was detected by the addition of an immunodetection complex containing a monoclonal mouse anti-human IgG1 diluted 1:11,000 to a final assay concentration (FAC) of 21 ng/100 μL, a biotinylated goat anti-mouse IgG diluted 1:500, to a FAC of […], and an avidin-linked alkaline phosphatase. […] Binding of the complex to the immobilized RAGE fusion protein was quantified by measuring conversion of PNPP to para-nitrophenol (PNP) which was measured spectrophotometrically at 405 nm.

T1 sequence (P02769 25-607 limits assumed): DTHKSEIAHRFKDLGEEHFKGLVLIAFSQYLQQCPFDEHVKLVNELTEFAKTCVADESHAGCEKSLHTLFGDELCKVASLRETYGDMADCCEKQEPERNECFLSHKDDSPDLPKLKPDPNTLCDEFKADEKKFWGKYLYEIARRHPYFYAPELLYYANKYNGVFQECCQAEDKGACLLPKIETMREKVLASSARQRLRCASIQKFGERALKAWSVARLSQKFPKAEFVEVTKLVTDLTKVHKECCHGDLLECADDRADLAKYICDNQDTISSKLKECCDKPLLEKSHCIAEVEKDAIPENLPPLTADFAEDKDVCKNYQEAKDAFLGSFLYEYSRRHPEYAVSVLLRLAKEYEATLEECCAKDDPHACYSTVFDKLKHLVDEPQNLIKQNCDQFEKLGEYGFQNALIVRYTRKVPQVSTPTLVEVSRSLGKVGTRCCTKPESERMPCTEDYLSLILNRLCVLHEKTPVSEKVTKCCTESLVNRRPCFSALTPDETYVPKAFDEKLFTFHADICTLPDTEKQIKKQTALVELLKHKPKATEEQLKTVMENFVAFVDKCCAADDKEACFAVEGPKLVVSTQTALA

B1: RAGE fusion protein TTP-3000 (Fc fusion)
chain: QNITARIGEPLVLKCKGAPKKPPQRLEWKLNTGRTEAWKVLSPQGGGPWDSVARVLPNGSLFLPAVGIQDEGIFRCQAMNRNGKETKSNYRVRVYQIPGKPEIVDSASELTAGPSVFLFPPKPKDTLMISRTPEVTCVVVDVSHEDPEVKFNWYVDGVEVHNAKTKPREEQYNSTYRVVSVLTVLHQDWLNGKEYKCKVSNKALPAPIEKTISKAKGQPREPQVYTLPPSRDELTKNQVSLTCLVKGFYPSDIAVEWESNGQPENNYKTTPPVLDSDGSFFLYSKLTVDKSRWQQGNVFSCSVMHEALHNHYTQKSLSLSPGK
modifications: N-terminal glutamine may be cyclized to pyroglutamic acid (SEQ ID NO: 19)
notes: The range 24-346 is derived from this and from the coding length 1-1041; No characterization of the expressed TTP-3000 is reported; also called TT3; three domain fusion protein
In the case of B1, the binding result is on record as “no binding”.

B2: RAGE fusion protein TTP-4000 (Fc fusion)
chain: QNITARIGEPLVLKCKGAPKKPPQRLEWKLNTGRTEAWKVLSPQGGGPWDSVARVLPNGSLFLPAVGIQDEGIFRCQAMNRNGKETKSNYRVRVYQIPGKPEIVDSASELTAGVPNKVGTCVSEGSYPAGTLSWHLDGKPLVPNEKGVSVKEQTRRHPETGLFTLQSELMVTPARGGDPRPTFSCSFSPGLPRHRALRTAPIQPRVWEPVPLEEVQLVVEPEGGAVAPPSVFLFPPKPKDTLMISRTPEVTCVVVDVSHEDPEVKFNWYVDGVEVHNAKTKPREEQYNSTYRVVSVLTVLHQDWLNGKEYKCKVSNKALPAPIEKTISKAKGQPREPQVYTLPPSRDELTKNQVSLTCLVKGFYPSDIAVEWESNGQPENNYKTTPPVLDSDGSFFLYSKLTVDKSRWQQGNVFSCSVMHEALHNHYTQKSLSLSPGK
modifications: N-terminal residue glutamine (Q) or pyroglutamic acid (pE) or a mixture thereof; glycosylation sites at N2 and N288 (numbering of the processed protein); C-terminal residue may be cleaved off
notes: The end of the range (461) is derived from the coding length 1-1386 and from residues P459 and G460 near the terminal codon; also called TT4; four domain fusion protein
On to B2, for which the binding result was “no binding”.
